B1: 333 (protein)
chain: LDNGLARTPTMGWLHWERFMCNLDCQEEPDSCISEKLFMEMAERMVSEGWKDAGYEYLCIDDCWMAPQRDSEGRLQADPQRFPHGIRQLANYVHSKGLKLGIYADVGNKTCAGFPGSFGYYDIDAQTFADWGVDLLKFDGCYCDSLENLADGYKHMSLALNRTGRSIVYSCEWPLYMWPFQKPNYTEIRQYCNHWRNFADIDDSWASIKSILDWTSFNQERIVDVAGPGGWNDPDMLVIGNFGLSWNQQVTQMALWAIMAAPLFMSNDLRHISPQAKALLQDKDVIAINQDPLGKQGYQLRQGDNFEVWERPLSGDAWAVAIINRQEIGGPRSYTIPVASLGKGVACNPGCFITQLLPVKRKLGFYNWSSRLKSHINPTGTVLLQLENTMQMSLKDLL
modifications: Synthetic Polypeptide sequence of Variant No. 333 of mature Human GLA
B2: 334 (protein)
chain: LDNGLARTPTMGWLHWERFMCNLDCQEEPDSCISEKLFMEMAERMVSEGWKDAGYEYLCIDDCWMAPQRDSEGRLQADPQRFPHGIRQLANYVHSKGLKLGIYADVGNKTCAGFPGSFGYYDIDAQTFADWGVDLLKFDGCYCDSLENLADGYKHMSLALNRTGRSIVYSCEWPLYMWPFQKPNYTEIRQYCNHWRNFADIDDSWASIKSILDWTSFNQERIVDVAGPGGWNDPDMLVIGNFGLSWDQQVTQMALWAIMAAPLFMSNDLRHISPQAKALLQDKDVIAINQDPLGKQGYQLRQGDNFEVWERPLSGDAWAVAIINRQEIGGPRSYTIAVASLGKGVACNPGCFITQLLPVKRQLGFYNWSSRLKSHINPTGTVLLQLENTMQMSLKDLL
modifications: Synthetic Polypeptide sequence of Variant No. 334 of mature Human GLA
B3: 335 (protein)
chain: LDNGLARTPTMGWLHWERFMCNLDCQEEPDSCISEKLFMEMAERMVSEGWKDAGYEYLCIDDCWMAPQRDSEGRLQADPQRFPHGIRQLANYVHSKGLKLGIYADVGNKTCAGFPGSFGYYDIDAQTFADWGVDLLKFDGCYCDSLENLADGYKHMSLALNRTGRSIVYSCEWPLYMWPFQKPNYTEIRQYCNHWRNFADIDDSWASIKSILDWTSFNQERIVDVAGPGGWNDPDMLVIGNFGLSWDQQVTQMALWAIMAAPLFMSNDLRHISPQAKALLQDKDVIAINQDPLGKQGYQLRQGDNFEVWERPLSGDAWAVAIINRQEIGGPRSYTIAVASLGGGVACNPGCFITQLLPVKRQLGFYNWSSRLKSHINPTGTVLLQLENTMQMSLKDLL
modifications: Synthetic Polypeptide sequence of Variant No. 335 of mature Human GLA
B4: 336 (protein)
chain: LDNGLARTPTMGWLHWERFMCNLDCQEEPDSCISEKLFMEMAERMVSEGWKDAGYEYLCIDDCWMAPQRDSEGRLQADPQRFPHGIRQLANYVHSKGLKLGIYADVGNKTCAGFPGSFGYYDIDAQTFADWGVDLLKFDGCYCDSLENLADGYKHMSLALNRTGRSIVYSCEWPLYMWPFQKPNYTEIRQYCNHWRNFADIDDSWASIKSILDWTSFNQERIVDVAGPGGWNDPDMLVIGNFGLSWDQQVTQMALWAIMAAPLFMSNDLRHISPQAKALLQDKDVIAINQDPLGKQGYQLRKGDNFEVWERPLSGLAWAVAIINRQEIGGPRSYTIAVASLGKGVACNPGCFITQLLPVKRKLGFYNWSSRLKSHINPTGTVLLQLENTMQMSLKDLL
modifications: Synthetic Polypeptide sequence of Variant No. 336 of mature Human GLA
B5: 337 (protein)
chain: LDNGLARTPTMGWLHWERFMCNLDCQEEPDSCISEKLFMEMAERMVSEGWKDAGYEYLCIDDCWMAPQRDSEGRLQADPQRFPHGIRQLANYVHSKGLKLGIYADVGNKTCAGFPGSFGYYDIDAQTFADWGVDLLKFDGCYCDSLENLADGYKHMSLALNRTGRSIVYSCEWPLYMWPFQKPNYTEIRQYCNHWRNFADIDDSWASIKSILDWTSFNQERIVDVAGPGGWNDPDMLVIGNFGLSWDQQVTQMALWAIMAAPLFMSNDLRHISPQAKALLQDKDVIAINQDPLGKQGYQLRKGDNFEVWERPLSGLAWAVAIINRQEIGGPRSYTIAVASLGDGVACNPACFITQLLPVKRKLGFYNWTSRLKSHINPTGTVLLQLENTMQMSLKDLL
modifications: Synthetic Polypeptide sequence of Variant No. 337 of mature Human GLA
B6: 338 (protein)
chain: LDNGLARTPTMGWLHWERFMCNLDCQEEPDSCISEKLFMEMAERMVSEGWKDAGYEYLCIDDCWMAPQRDSEGRLQADPQRFPHGIRQLANYVHSIGLKLGIYADVGNKTCAGFPGSFGYYDIDAQTFADWGVDLLKFDGCYCDSLENLADGYKHMSLALNRTGRSIVYSCEWPLYMWPFQKPNYTEIRQYCNHWRNFADIDDSWASIKSILDWTSRNQERIVDVAGPGGWNDPDMLVIGNFGLSWDQQVTQMALWAIMAAPLFMSNDLRHISPQAKALLQDKDVIAINQDPLGKQGYQLRQGDNFEVWERPLSGLAWAVAIINRQEIGGPRSYTIAVASLGKGVACNPGCFITQLLPVKRQLGFYNWTSRLKSHINPTGTVLLQLENTMQMSLKDLL
modifications: Synthetic Polypeptide sequence of Variant No. 338 of mature Human GLA
B7: 339 (protein)
chain: LDNGLARTPTMGWLHWERFMCNLDCQEEPDSCISEKLFMEMAERMVSEGWKDAGYEYLCIDDCWMAPQRDSEGRLQADPQRFPHGIRQLANYVHSIGLKLGIYADVGNKTCAGFPGSFGYYDIDAQTFADWGVDLLKFDGCYCDSLENLADGYKHMSLALNRTGRSIVYSCEWPLYMWPFQKPNYTEIRQYCNHWRNFADIDDSWASIKSILDWTSRNQERIVDVAGPGGWNDPDMLVIGNFGLSWDQQVTQMALWAIMAAPLFMSNDLRHISPQAKALLQDKDVIAINQDPLGKQGYQLRQGDNFEVWERPLSGLAWAVAIINRQEIGGPRSYTIAVASLGKGVACNPGCFITQLLPVKRQLGFYNWTSRLKSHINPTGTVLLQLENTMQMSLKDLL
modifications: Synthetic Polypeptide sequence of Variant No. 339 of mature Human GLA

How the values were obtained:
Format in all cases: biochemical
[1] = HTP-analysis of yeast culture supernatants, no challenge (MUGal hydrolysis); conditions: activity of the variant/activity of Rd3BB (SEQ ID NO: 13), yeast culture supernatant
Procedure, shortened: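 Activity read as 4-methylumbelliferyl α-D-galactopyranoside hydrolysis: fluorescence (355/448 nm) after sodium carbonate stop, following 30-180 min at 37° C with 2 mM MUGal stock at pH 4.6–4.8. Enzyme source is unchallenged culture supernatant of INVSc1 yeast expressing GLA variants, grown 66-84 h at 30° C.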

[2] = HTP-analysis of supernatants pretreated with acid (MUGal hydrolysis); conditions: challenge at pH 4.0; activity of the variant/activity of Rd3BB (SEQ ID NO: 13); yeast culture supernatant
Procedure, shortened: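 GLA variants were secreted from INVSc1 yeast grown 66-84 h at 30° C. in SD-Ura with 2% glucose; supernatants were mixed with McIlvaine buffer pH 3.3-4.3 and held at 37° C. for 1-3 h. Residual activity on MUGal at pH 4.8 was then measured by fluorescence.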

[3] = HTP-analysis of supernatants pretreated with base (MUGal hydrolysis); conditions: challenge at pH 8.2; activity of the variant/activity of Rd3BB (SEQ ID NO: 13); yeast culture supernatant
Procedure, shortened: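 Supernatants from INVSc1 yeast expressing GLA variants (SD-Ura, 66-84 h, 30° C) were mixed with McIlvaine buffer pH 7.0-8.2 or 200 mM sodium bicarbonate pH 9.1-9.7 and held 1-18 h at 37° C. Residual activity was then measured on MUGal at pH 4.8/4.3, 37° C, 30-180 min, by fluorescence (Ex 355/Em 448 nm).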

[4] = HTP-analysis of supernatants pretreated with bovine serum (MUGal hydrolysis); conditions: activity of the variant/activity of Rd3BB (SEQ ID NO: 13), yeast culture supernatant
Procedure, shortened: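 Yeast INVSc1 culture supernatants containing secreted GLA variants were mixed with bovine serum (20:80) and held 1 h at 37° C. Serum-treated samples then reacted with MUGal (4 mM stock) in citrate/McIlvaine buffer (pH 4.3/4.8) for 180 min at 37° C., were quenched with sodium carbonate, and read by fluorescence (Ex 355, Em 448 nm).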

| Molecule | Relative Activity of GLA Variants After No Challenge (NC) [1] | Relative Activity of GLA Variants After Challenge at pH 4.0 [2] | Relative Activity of GLA Variants After Challenge at pH 8.2 [3] | Relative Activity of GLA Variants After Challenge with Serum [4] |
| --- | --- | --- | --- | --- |
| B1 | ++ (++ = >1.5 to 2.5 relative activity over Rd3BB (SEQ ID NO: 13)) | ++ (++ = >1.5 to 2.5 relative activity over Rd3BB (SEQ ID NO: 13)) | ++ (++ = >1.5 to 2.5 relative activity over Rd3BB (SEQ ID NO: 13)) | + (+ = 0.5 to 1.5 relative activity over Rd3BB (SEQ ID NO: 13)) |
| B2 | + (+ = 0.5 to 1.5 relative activity over Rd3BB (SEQ ID NO: 13)) | ++ (++ = >1.5 to 2.5 relative activity over Rd3BB (SEQ ID NO: 13)) | +++ (+++ = >2.5 relative activity over Rd3BB (SEQ ID NO: 13)) | ++ (++ = >1.5 to 2.5 relative activity over Rd3BB (SEQ ID NO: 13)) |
| B3 | ++ (++ = >1.5 to 2.5 relative activity over Rd3BB (SEQ ID NO: 13)) | +++ (+++ = >2.5 relative activity over Rd3BB (SEQ ID NO: 13)) | +++ (+++ = >2.5 relative activity over Rd3BB (SEQ ID NO: 13)) | +++ (+++ = >2.5 relative activity over Rd3BB (SEQ ID NO: 13)) |
| B4 | + (+ = 0.5 to 1.5 relative activity over Rd3BB (SEQ ID NO: 13)) | + (+ = 0.5 to 1.5 relative activity over Rd3BB (SEQ ID NO: 13)) | + (+ = 0.5 to 1.5 relative activity over Rd3BB (SEQ ID NO: 13)) | − (− = <0.5 relative activity to Rd3BB (SEQ ID NO: 13)) |
| B5 | + (+ = 0.5 to 1.5 relative activity over Rd3BB (SEQ ID NO: 13)) | ++ (++ = >1.5 to 2.5 relative activity over Rd3BB (SEQ ID NO: 13)) | ++ (++ = >1.5 to 2.5 relative activity over Rd3BB (SEQ ID NO: 13)) | ++ (++ = >1.5 to 2.5 relative activity over Rd3BB (SEQ ID NO: 13)) |
| B6 | ++ (++ = >1.5 to 2.5 relative activity over Rd3BB (SEQ ID NO: 13)) | +++ (+++ = >2.5 relative activity over Rd3BB (SEQ ID NO: 13)) | +++ (+++ = >2.5 relative activity over Rd3BB (SEQ ID NO: 13)) | +++ (+++ = >2.5 relative activity over Rd3BB (SEQ ID NO: 13)) |
| B7 | + (+ = 0.5 to 1.5 relative activity over Rd3BB (SEQ ID NO: 13)) | + (+ = 0.5 to 1.5 relative activity over Rd3BB (SEQ ID NO: 13)) | ++ (++ = >1.5 to 2.5 relative activity over Rd3BB (SEQ ID NO: 13)) | + (+ = 0.5 to 1.5 relative activity over Rd3BB (SEQ ID NO: 13)) |
